The source of these data is the RNAGym collection of RNA variant scans (doi:10.7554/elife.80360).

B1: HDV Ribozyme (parent)
chain: GGCCGGCAUGGUCCCAGCCUCCUCGCUGGCGCCGGCUGGGCAACAUUCCGAGGGGACCGUCCCCUCGGUAAUGGCGAAUGGGACCCA

The data set covers variants of B1. Description: self-cleavage, relative activity (ratio to wild type); higher = more cleavage; co-transcriptional.
Regarding GGCCGGCAUGGUCCCAGCCUCCUCGCUGGCGCCGGCUGGGCAACUUUCCGUGGGGACCGUCCCCUCGGUAAUGGCGAAUGGGACCCA [A45U A51U], the self-cleavage was 0.767.

In the case of GGCCGGCAUGCUCCCAGCCUCCUCGCUGGCGCCGGCAGGGCAACAUUCCGAGGGGACCGUCCCCUCGGUAAUGGCGAAUGGGACCCA [G11C U37A], the self-cleavage was 0.

Turning to GGCCCGCAUGGUCCCAGCCUCCUCGCUGGCGCCGGCUGGGCAAAAUUCCGAGGGGACCGUCCCCUCGGUAAUGGCGAAUGGGACCCA [G5C C44A], the self-cleavage is 0.

On to GGCCGGCAUGGUCCCAGCCUCCUCGCUGGCGCCGGCUGGGCAACAUUCCCAGGUGACCGUCCCCUCGGUAAUGGCGAAUGGGACCCA [G50C G54U], for which the self-cleavage turned out to be 0.374.

For the variant GGCCGGCAUAGUCCCAGCCUCCUCGCUGGCGCCGGCUGGGCAACAUUCCGAGGGGACCGUCCCCUCGGUAAUGGCGAAUGGGACCUA [G10A C86U], the self-cleavage came to 0.774.

Turning to GGCCGGCAUGGUCCCAGCCUCCUCGCUGGCUCCGGCUGGGCAACAUUCCGAGGGCACCGUCCCCUCGGUAAUGGCGAAUGGGACCCA [G31U G55C], the self-cleavage came to 0.314.

Turning to GGCCGGCAUGGUCCCAGCCUCCUCGCUGGCGCCGGCUGGGCAACAUUCCGAGGCGACCGUCCCCUCGGUAAUGGCCAAUGGGACCCA [G54C G76C], the self-cleavage amounted to 0.981.

GGCCGGCAUGGUCCCAUCCUCCUCGCUGGCGCCGGCUGGGCAACAUUCCGAGGGGACCGUCCCCUCGGUAAUGGCGAAUGAGACCCA [G17U G81A]: the self-cleavage worked out at 0.415.

As for GGCCGGCAUGGUCCCCGCCUCCUCGCUGGCGCCGGCUGGGCAACAUUCCGAGGGGACCGUCCCCUCGGUAAUGGCGAAUUGGACCCA [A16C G80U], the self-cleavage stood at 0.171.

GGCCGGCAUGGUCCCAGCCUCCUCGCUGGCCCCGGCUGGGCACCAUUCCGAGGGGACCGUCCCCUCGGUAAUGGCGAAUGGGACCCA [G31C A43C]: the self-cleavage was found to be 0.

For the variant GGCCGGCAUGGUCCCAGCCUCCUCGCUGGCGCCGGCUGGGCAACAUUCCGAGGGGACCGUCGCCUCGGUAAUGGCGAAUGGGACACA [C62G C85A], the self-cleavage turned out to be 0.717.

For the variant GGCCGGCAUGGUCCUAGCCUCCUCGCUGGCGCCGGCUGGGCAACAUUCCGACGGGACCGUCCCCUCGGUAAUGGCGAAUGGGACCCA [C15U G52C], the self-cleavage was determined as 1.03.

With GGCAGGCAUGGUCCCAGCCUCCUCGCUGGCGCCGGCUGGGCAACAUUCCGAGGGGACCUUCCCCUCGGUAAUGGCGAAUGGGACCCA [C4A G59U], the self-cleavage came out at 0.415.

For the variant GGCCGGCAUGGUCCCAGCCUCCUCGCUGGCGCCGGCUGGGCAACAUUCCGUGGGGACCGUCCCCUCGGUAAUGGCGAAUGGGAACCA [A51U C84A], the self-cleavage came to 0.916.

For GGCCGGCAUGGUCCCAGCCUUCUCGCUGGCGCCGGCUGGGCAACAUUCCGUGGGGACCGUCCCCUCGGUAAUGGCGAAUGGGACCCA [C21U A51U], the self-cleavage came out at 0.308.

As for GGGCGGCAUGGUCCCAGCCUCCUCGCUCGCGCCGGCUGGGCAACAUUCCGAGGGGACCGUCCCCUCGGUAAUGGCGAAUGGGACCCA [C3G G28C], the self-cleavage stood at 0.107.

Turning to GGCCGGCAUGGUCCCAGCCUCCUCGCUGGCGCCGGCUGGACAACAUUCCGAGGGGACCGUCCCCUCGGUUAUGGCGAAUGGGACCCA [G40A A70U], the self-cleavage worked out at 0.868.

In the case of GGCCGGCAUGGUCCCAGCCUCCUCGCGGGCGCCUGCUGGGCAACAUUCCGAGGGGACCGUCCCCUCGGUAAUGGCGAAUGGGACCCA [U27G G34U], the self-cleavage is 0.538.

GGCCGGCAUGGUCCCAGCCUCCUCGCUGGCGCUGGCUGGGCAACAUUCAGAGGGGACCGUCCCCUCGGUAAUGGCGAAUGGGACCCA [C33U C49A]: the self-cleavage came to 0.946.

Regarding GGCCGGCAUGGUCCCACCCUCCUCGCUGGCGCCGGCUGGGCAACAUUCCGAGGGGACCGUCCCCGCGGUAAUGGCGAAUGGGACCCA [G17C U65G], the self-cleavage is 0.249.

On to GGCCGGCAUGGUCCCAGCCUCCUCGCUGGCGCCGGCUGGGCAACAUUCCGAGGAGACCGUCCCCUCGGCAAUGGCGAAUGGGACCCA [G54A U69C], for which the self-cleavage turned out to be 0.95.

For GGCCGGCAUGGUCCCAGCCUCCUCGCUGGCGCCGGCUGGGCAACAUUCCGAGGGGACCGUCCCCUCGGUAAUGGCGUAUGGGACGCA [A77U C85G], the self-cleavage came to 0.299.

As to GGCCGGCAUGGUCCCAGCCUCCUCGCUGGCGCCGGCUGGGCAACAUUCCGAGGGGACCGUCCCCUCGGUAACGGCGCAUGGGACCCA [U72C A77C], the self-cleavage was determined as 0.246.

In the case of GGCCGGCAUGGUCCCAGCCUGCUCGCUGGCCCCGGCUGGGCAACAUUCCGAGGGGACCGUCCCCUCGGUAAUGGCGAAUGGGACCCA [C21G G31C], the self-cleavage worked out at 0.147.

On to GGCCGGCAUGGUCCCACCCUCCUCGCUGGCGCCGGCUGGGCAACAUUCCGAGGGGACCGUCCCAUCGGUAAUGGCGAAUGGGACCCA [G17C C64A], for which the self-cleavage was determined as 0.314.

Consider GGCCGGCAUCGUCCCAGCCUCCUCGCUGGCGCCGGCUGGGCAACAUUCCGAGGGGACCGUGCCCUCGGUAAUGGCGAAUGGGACCCA [G10C C61G], for which the self-cleavage worked out at 0.808.

GGCCGGCAUGGUCCCAGCCUCCUCGCUGGCGCCGGCUGGGCAACAUUCCGAGGGGACCGUCCCCUCCGUAAUGCCGAAUGGGACCCA [G67C G74C]: the self-cleavage came out at 0.123.

On to GGCCGGCAUGGUCCCAGCCUGCUCGCUGGCGCCGGCUGGGCAACAUUCCGAGGGGACCGUCCCCUCGGUAUUGGCGAAUGGGACCCA [C21G A71U], for which the self-cleavage came to 0.

GGCCGGCAUGGUCCCAGCCUCCUCGCUGGCGCCGGCUGGGCAACAUGCCGAGGGGACCGUCCCCUCGGUAAUGGCGAAUGGGAGCCA [U47G C84G]: the self-cleavage was 0.475.

As for GGCCGGCAUGGUCCCAGCCUCCUCGCUGGCGCCGGCUGGGCAACAUUCCGAGGGGACCGACCCCUCGGUAAUGGCGGAUGGGACCCA [U60A A77G], the self-cleavage came to 1.14.

For the variant GGCCGGCGUGGUCCCAGCCUCCUCGCUGGCGCCGGCUGGGCAACAUUCCGAGGGGACCGUCCCUUCGGUAAUGGCGAAUGGGACCCA [A8G C64U], the self-cleavage came out at 1.07.

For GGCCGGCAUGGUCCCAGCCUCCUCGCUGGCGCCGGCUGGGCAACAUUCCGAGGGGACCGUCCGCUCGGUAAUGGCGAAUGGGCCCCA [C63G A83C], the self-cleavage amounted to 0.249.
